# In publication PMC10538664 (PLOS Pathogens, 2023):
# Target: prototype SARS-CoV-2 tandem RBD homotrimer (PPP) (SARS-CoV-2, UniProt P0DTC2)
# Experiment: cryo-EM structure
# Conditions: both partners purified
binder,measurement,value
"fragment antigen binding (Fab) of mAb CB6 (Fab, V domains shown) VH: EVQLVESGGGLVQPGGSLRLSCAASGFTVSSNYMSWVRQAPGKGLEWVSVIYSGGSTFYADSVKGRFTISRDNSMNTLFLQMNSLRAEDTAVYYCARVLPMYGDYLDYWGQGTLVTVSS VL: not shown",stoichiometry N,3
